Assay results from article PMC5763555.

T1: MEX-5 TZF domain (Caenorhabditis elegans, UniProt Q9XUB2 236-350)
T1 sequence: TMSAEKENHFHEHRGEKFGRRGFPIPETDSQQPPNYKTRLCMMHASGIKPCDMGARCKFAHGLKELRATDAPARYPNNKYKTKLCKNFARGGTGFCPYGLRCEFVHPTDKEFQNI


Columns and labels:
Test in all cases: EMSA
POS-1 TZF domain = POS-1 TZF domain (Caenorhabditis elegans, UniProt G5EF15 80-180)
POS-1(ZFmut) TZF domain = POS-1(ZFmut) TZF domain (Caenorhabditis elegans, UniProt G5EF15 80-180, F121N;F164N)
MEX-5 TZF domain = molecular target: T1, MEX-5 TZF domain

Chain of POS-1 TZF domain (G5EF15 80-180): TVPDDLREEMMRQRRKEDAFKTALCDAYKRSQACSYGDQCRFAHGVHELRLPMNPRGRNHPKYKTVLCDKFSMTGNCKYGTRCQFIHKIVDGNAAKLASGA
Chain of POS-1(ZFmut) TZF domain (G5EF15 80-180 F121N/F164N): as the sequence (G5EF15 80-180) above, with F42N, F85N counted along it

Row | Binder | Kd (POS-1 TZF domain) [nM] | Kd (POS-1(ZFmut) TZF domain) [nM] | Kd (MEX-5 TZF domain) [nM]
1 | UUUUUCUUAUUCUAGACUAAUAUUGUAAGCU (ssRNA) [SCR+ (glp-1 3'UTR fragment)] | 26.9 ± 1.8 | > 300 | 
2 | GUGAUUAUUUAUUAUUUAUUUAUUAUUUAUUUAUUAG (ssRNA) [TNF-ARE] |  |  | 11 ± 2
